# Measured values: patent publication US9670514B2, “Method for producing polysaccharide” (SANYO CHEMICAL INDUSTRIES, LTD., priority 2011, dated 2017)
# What was measured:
# [1] = Specific activity of ribonucleoside diphosphate conversion enzyme solutions (TLC, UV 260 nm); type: biochemical; conditions: 1 mM uridine diphosphate, 30° C., pH 7.0, with the co-substrate of each enzyme
# Method: Reaction solution (2) was prepared by adding 10 μL of 1 M sucrose aqueous solution and 10 μL of sucrose synthase aqueous solution (D7-1) to 1 mL of aqueous solution R (50 mM phosphate buffer (pH of 7.0) containing 100 mM sodium chloride, 10 mM magnesium chloride, and 1 mM uridine diphosphate). Three such reaction solutions (2) were prepared and allowed to react at 30° C. for 5 minutes, 10 minutes, and 15 minutes, respectively. As for the amount of compound (C-7) as the reaction product (uridine diphosphate-glucose), the reaction product was developed on TLC (PEI-Cellulose plate available from Sigma-Aldrich Corporation, hereinafter the same) (developing solvent: an aqueous solution containing 1 M LiCl and 1 M formic acid, hereinafter the same), and detected with a UV light (260 nm). The specific activity of sucrose synthase aqueous solution (D7-1) was calculated to be 0.3 U/μL from the relationship between the yield of compound (C-7) and the reaction time.
# Reaction solution (3) was prepared by adding 0.1 mg of reduced thioredoxin and 10 μL of ribonucleotide diphosphate reductase aqueous solution (D6-1) to 1 mL of aqueous solution R. Three such reaction solutions (3) were prepared and allowed to react at 30° C. for 5 minutes, 10 minutes, and 15 minutes, respectively. As for the amount of compound (C-6) as the reaction product (deoxyuridine diphosphate), the reaction product was developed on TLC and detected with a UV light (260 nm). The specific activity of ribonucleotide diphosphate reductase aqueous solution (D6-1) was calculated to be 0.3 U/μL from the relationship between the yield of compound (C-6) and the reaction time. […]
# Reaction solution (5) was prepared by adding 10 μL of nucleotidase aqueous solution (D3-1) to 1 mL of aqueous solution R. Three such reaction solutions (5) were prepared and allowed to react at 30° C. for 5 minutes, 10 minutes, and 15 minutes, respectively. For the amount of compound (C-3) as the reaction product (uridine monophosphate), the reaction product was developed on TLC and detected with a UV light (260 nm). […]
# [2] = Enzyme activity ratio (Y1)=Vmax1/Vmax2 of conversion enzyme (Lineweaver-Burk); type: biochemical
# Text: In the present invention, in the case where ribonucleoside diphosphate conversion enzyme (D) is used, an enzyme activity ratio (Y1) calculated from the following formula (1) using enzyme activity Vmax1 and enzyme activity Vmax2 described below is preferably not lower than 0.1 in terms of efficient polysaccharide production and efficient use of the substrate (ribonucleoside diphosphate-monosaccharide (A)). Enzyme activity ratio (Y1)=Vmax1/Vmax2 (1) • Enzyme activity Vmax1: the enzyme activity of ribonucleoside diphosphate conversion enzyme (D) on ribonucleoside diphosphate. • Enzyme activity Vmax2: the enzyme activity of ribonucleoside diphosphate conversion enzyme (D) on ribonucleoside diphosphate-monosaccharide (A).
# An enzyme reaction solution (II) containing specific amounts of substrate (ribonucleoside diphosphate or uridine diphosphate-monosaccharide (A)), enzyme (polysaccharide synthase (B) or ribonucleoside diphosphate conversion enzyme (D)), pH adjuster (K), and water is prepared, which is adjusted to a specific temperature and a specific pH. • Phosphate-containing compound (F) is added, if necessary, to the enzyme reaction solution (II) if the enzyme to be used is (D4). Reducing agent (d6) is added if the enzyme is (D6), and raw material (d7) of nucleotide sugar is added if the enzyme is (D7).
# After preparation of the enzyme reaction solution (II), it is allowed to stand for enzyme reaction for 1 minute to 100 hours. Next, the amount (X) of the reaction product obtained from the reaction is measured to determine the initial enzyme reaction velocity v. Likewise, the initial enzyme reaction velocity v is determined, using the enzyme reaction solution (II) having a different substrate concentration. A Lineweaver-Burk plot is generated from the above-obtained initial enzyme reaction velocity v and substrate concentration, and the enzyme activity Vmax is determined therefrom.
# The enzyme activity Vmax (M/s) is determined using Lineweaver-Burk plot derived from Michaelis-Menten kinetics. […]
# In the above measurement, the result determined using ribonucleoside diphosphate conversion enzyme (D) as an enzyme and ribonucleoside diphosphate as a substrate represents Vmax1, and the result determined using ribonucleoside diphosphate conversion enzyme (D) as an enzyme and ribonucleoside diphosphate-monosaccharide (A) as a substrate represents Vmax2. In the case where two or more types of ribonucleoside diphosphate-monosaccharide (A) are used, Vmax2 is determined for each ribonucleoside diphosphate-monosaccharide (A). The enzyme activity ratio (Y1) is also determined for each type from formula (1) using each Vmax2. […]
Substance,specific activity [1] [U/μL],enzyme activity ratio (Y1) of each type ([2]; Vmax2 substrates uridine diphosphate-glucuronic acid and uridine diphosphate-N-acetylglucosamine),"enzyme activity ratio (Y1) of each type ([2]; Vmax2 substrates UDP-glucuronic acid, -N-acetylglucosamine, -N-acetylgalactosamine, -glucose, -mannose, -glucosamine)",enzyme activity ratio (Y1) ([2]; Vmax2 substrate uridine diphosphate-N-acetylglucosamine),enzyme activity ratio (Y1) ([2]; Vmax2 substrate uridine diphosphate-glucuronic acid)
"polyribonucleotide nucleotidyltransferase aqueous solution (D5-1): polyribonucleotide nucleotidyltransferase, SEQ ID NO: 6, derived from Escherichia coli",0.3,≥ 10,,,
"pyruvate kinase aqueous solution (D4-1-1): pyruvate kinase, SEQ ID NO: 4, derived from Escherichia coli",0.3,,≥ 10,,
"sucrose synthase aqueous solution (D7-1): sucrose synthase, SEQ ID NO: 2, derived from Vicia faba",0.3,,,≥ 10,≥ 10
